This is an account of results in US20110143963A1 (UNIVERSITY OF CHICAGO, published 2011).

Where no end group is shown, it is not given here.

Test [1] concerns the target T1, target motif GGRSWFETWV-COOH.
T1 construct: also called target peptide
T1 peptide: GGRSWFETWV-OH
Briefly: phage display format and SPR. The method, then:
From visual inspection of the erbin PDZ structure and a sequence alignment of PDZ domains, three potential sites were identified for the new termini in a circularly permutated PDZ domain. Three mutant PDZ domains, in which four Gly residues were inserted in one of the three candidate sites, were assayed for binding to the target motif using the phage display format.

Test [2] deals with T2, SUMO-ARVCF fusion protein (yeast).
T2 construct: also called target peptide fused to the yeast SUMO protein; the target
Put plainly: SPR, equilibrium mode, target peptide fused to yeast SUMO.

Test [3] concerns the target T2, SUMO-ARVCF fusion protein. Briefly: SPR, ratio of Kd. (SPR reads the build-up and loss of mass on a sensor chip optically.)
Test [4] concerns the target T3, ARVCF peptide PQPVDSWV-COOH (eight-residue motif corresponding to the ARVCF C-terminus) (not fully specified; printed as PQPVDSWV-COOH).
T3 construct: also called ARVCF target peptide; AVFCF peptide
T3 peptide: PQPVDSWV-OH
Briefly: SPR, ratio of Kd.

For test [5], the target named is T3, ARVCF peptide PQPVDSWV-COOH …. Briefly: SPR (error 13500 stands in r16c7).
For test [6] the target is unchanged. Briefly: SPR (BIAcore).

B1: circularly permutated PDZ domain (designed binder)
chain: PELGFSISGGVGGRGNPFRPDDDGIFVTRVQPEGPASKLLQPGDKIIQANGYSFINIEHGQAVSLLKTFQNTVELIIVREVGNGAKQEIRVRVEKD
notes: The order would be PDZ residues 21 to C-terminus, Asn-Gly, then residues 1-20; also called cpPDZ
Take B1: the binding result in test [1] was “binds”.

B2: peptide-PDZ affinity clamp, clone 282-6 (designed binder)
chain: GSNFCASNGTGNDCRRPELGFSISGGVGGRGNPFRPDDDGIFVTRVQPEGPASKLLQPGDKIIQANGYSFINIEHGQAVSLLKTFQNTVELIIVREVGNGAKQEIRVRVEKDGG
modifications: disulfide-constrained (Cys-constrained) peptide segment
For orientation: Kd means a measure of binding affinity in units of concentration. B2 yielded a Kd in test [2] of 0.91 µM. For the same molecule, the “fold higher affinity than the parent interaction domain (cpPDZ)” value in test [3] was 12 fold.

B3: fusion protein of cpPDZ and FN3 (starting material) (designed binder)
chain: PELGFSISGGVGGRGNPFRPDDDGIFVTRVQPEGPASKLLQPGDKIIQANGYSFINIEHGQAVSLLKTFQNTVELIIVREVGNGAKQEIRVRVEKDGGSGGVSSVPTNLEVVAATPTSLLISWDASSSSVSYYRITYGETGGNSPVQEFTVPGSKSTATISGLKPGVDYTITVYASSSSSSSSSSPISINYRT
B3: in test [4], the “Affinity Enhancement (Kd of cpPDZFN for ARVCF / Kd of the clamp)” value came to 1 fold. For the same molecule, the Kd is 24.8 µM in test [5] and 25 µM in test [6].
